± gives the standard deviation of the averaged measurements.
B1: library; a variant is named by its letters at N, in order (parent)
chain: GCUGUCACCGGUGUAUUACCCUAGUGGUCGACCGGUCUGAUGAGUCUNNNNNNAGACGAAACAGC

Assays:
hypoxanthine [1] = variants of: B1; assay: FACS-Seq fitted mean relative fluorescence mCherry/BFP without ligand (log10 relative fluorescence); ligand: hypoxanthine (xanthine aptamer); higher = higher reporter protein expression; conditions: HEK293T, ligand present: no
Outline: (§1)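 Fluorescence is reported as a normalized fitted mean of sorted-bin read counts. Lentivirally transduced HEK293T libraries (mCherry ribozyme-switch reporter, EF1α-BFP marker) were enriched, treated with or without ligand for 48 h, and sorted into 6 mCherry/BFP bins for MiSeq sequencing of PCR-amplified genomic DNA. The normal fit was on log10(mCherry/BFP), scaled to five spiked-in control ribozymes.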

hypoxanthine [2] = variants of: B1; assay: normalized RNA/DNA level with ligand (relative to sTRSVctl = 100) (log10 (% of sTRSVctl)); ligand: hypoxanthine (xanthine aptamer); higher = less ribozyme self-cleavage, higher mRNA level; conditions: ligand concentration (+) RNA-Seq: 5 mM, HEK293T, reporter: mCherry (pCS4076), ligand present: yes
Outline: (§2)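 Library plasmids encoding reporter-linked ribozyme switches (mCherry, or eGFP for some folinic acid experiments) were transfected into HEK293T at 4 µg per 6-well well. Ligand, when used, was added 1 h before transfection. Total RNA was extracted with EDTA 72 h later, then reverse-transcribed, amplified, barcoded and sequenced. RNA level was RNA reads over DNA reads, divided by a spiked-in non-cleaving control (or the top 25 sequences), ×100, log10; only sequences with ≥100 DNA reads were kept.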

hypoxanthine [3] = variants of: B1; assay: normalized RNA/DNA level without ligand (relative to sTRSVctl = 100) (log10 (% of sTRSVctl)); ligand: hypoxanthine (xanthine aptamer); higher = less ribozyme self-cleavage, higher mRNA level; conditions: HEK293T, reporter: mCherry (pCS4076), ligand present: no
Outline: as §2

hypoxanthine [4] = variants of: B1; assay: FACS-Seq fitted mean relative fluorescence mCherry/BFP with ligand (log10 relative fluorescence); ligand: hypoxanthine (xanthine aptamer); ligand concentration (+) FACS-Seq: 5 mM; higher = higher reporter protein expression; conditions: HEK293T, ligand present: yes
Outline: as §1

GCUGUCACCGGUGUAUUACCCUAGUGGUCGACCGGUCUGAUGAGUCUGCUCGAAGACGAAACAGC
FACS-Seq fitted mean (log10) (hypoxanthine [1]): 0.14 ± 0.0058 | normalized RNA/DNA level with ligand (log10) (hypoxanthine [2]): 1.92 ± 0.02 | normalized RNA/DNA level without ligand (log10) (hypoxanthine [3]): 1.67 ± 0.088 | FACS-Seq fitted mean (log10) (hypoxanthine [4]): 0.526 ± 0.025

GCUGUCACCGGUGUAUUACCCUAGUGGUCGACCGGUCUGAUGAGUCUGUAGAAAGACGAAACAGC
FACS-Seq fitted mean (log10) (hypoxanthine [1]): 0.2674 ± 0.0022 | normalized RNA/DNA level with ligand (log10) (hypoxanthine [2]): 1.89 ± 0.03 | normalized RNA/DNA level without ligand (log10) (hypoxanthine [3]): 1.723 ± 0.0046 | FACS-Seq fitted mean (log10) (hypoxanthine [4]): 0.342 ± 0.023

GCUGUCACCGGUGUAUUACCCUAGUGGUCGACCGGUCUGAUGAGUCUGGACAAAGACGAAACAGC
FACS-Seq fitted mean (log10) (hypoxanthine [1]): 0.0221 ± 0.17 | normalized RNA/DNA level with ligand (log10) (hypoxanthine [2]): 1.89 ± 0.02 | normalized RNA/DNA level without ligand (log10) (hypoxanthine [3]): 1.76 ± 0.028 | FACS-Seq fitted mean (log10) (hypoxanthine [4]): 0.0902 ± 0.07

GCUGUCACCGGUGUAUUACCCUAGUGGUCGACCGGUCUGAUGAGUCUAAGACCAGACGAAACAGC
FACS-Seq fitted mean (log10) (hypoxanthine [1]): 0.483 ± 0.015 | normalized RNA/DNA level with ligand (log10) (hypoxanthine [2]): 1.94 ± 0.029 | normalized RNA/DNA level without ligand (log10) (hypoxanthine [3]): 1.9 ± 0.027 | FACS-Seq fitted mean (log10) (hypoxanthine [4]): 0.305 ± 0.21

GCUGUCACCGGUGUAUUACCCUAGUGGUCGACCGGUCUGAUGAGUCUGUAUAGAGACGAAACAGC
FACS-Seq fitted mean (log10) (hypoxanthine [1]): -0.0857 ± 0.034 | normalized RNA/DNA level with ligand (log10) (hypoxanthine [2]): 1.854 ± 0.0081 | normalized RNA/DNA level without ligand (log10) (hypoxanthine [3]): 1.44 ± 0.065 | FACS-Seq fitted mean (log10) (hypoxanthine [4]): 0.479 ± 0.013

GCUGUCACCGGUGUAUUACCCUAGUGGUCGACCGGUCUGAUGAGUCUGAGCGCAGACGAAACAGC
FACS-Seq fitted mean (log10) (hypoxanthine [1]): 0.507 ± 0.012 | normalized RNA/DNA level with ligand (log10) (hypoxanthine [2]): 1.89 ± 0.026 | normalized RNA/DNA level without ligand (log10) (hypoxanthine [3]): 1.55 ± 0.017 | FACS-Seq fitted mean (log10) (hypoxanthine [4]): 0.556 ± 0.09

GCUGUCACCGGUGUAUUACCCUAGUGGUCGACCGGUCUGAUGAGUCUAAGAGAAGACGAAACAGC
FACS-Seq fitted mean (log10) (hypoxanthine [1]): 0.1774 ± 0.00084 | normalized RNA/DNA level with ligand (log10) (hypoxanthine [2]): 1.8 ± 0.047 | normalized RNA/DNA level without ligand (log10) (hypoxanthine [3]): 1.25 ± 0.055 | FACS-Seq fitted mean (log10) (hypoxanthine [4]): 0.598 ± 0.033

GCUGUCACCGGUGUAUUACCCUAGUGGUCGACCGGUCUGAUGAGUCUGGAAGGAGACGAAACAGC
FACS-Seq fitted mean (log10) (hypoxanthine [1]): -0.0545 ± 0.055 | normalized RNA/DNA level with ligand (log10) (hypoxanthine [2]): 1.81 ± 0.03 | normalized RNA/DNA level without ligand (log10) (hypoxanthine [3]): 1.29 ± 0.068 | FACS-Seq fitted mean (log10) (hypoxanthine [4]): 0.241 ± 0.04

GCUGUCACCGGUGUAUUACCCUAGUGGUCGACCGGUCUGAUGAGUCUCAAUGGAGACGAAACAGC
FACS-Seq fitted mean (log10) (hypoxanthine [1]): -0.334 ± 0.031 | normalized RNA/DNA level with ligand (log10) (hypoxanthine [2]): 1.82 ± 0.071 | normalized RNA/DNA level without ligand (log10) (hypoxanthine [3]): 1.42 ± 0.042 | FACS-Seq fitted mean (log10) (hypoxanthine [4]): 0.178 ± 0.12

GCUGUCACCGGUGUAUUACCCUAGUGGUCGACCGGUCUGAUGAGUCUCACUAAAGACGAAACAGC
FACS-Seq fitted mean (log10) (hypoxanthine [1]): 0.376 ± 0.014 | normalized RNA/DNA level with ligand (log10) (hypoxanthine [2]): 1.8618 ± 0.00057 | normalized RNA/DNA level without ligand (log10) (hypoxanthine [3]): 1.74 ± 0.025 | FACS-Seq fitted mean (log10) (hypoxanthine [4]): 0.456 ± 0.0093

GCUGUCACCGGUGUAUUACCCUAGUGGUCGACCGGUCUGAUGAGUCUGGGCUGAGACGAAACAGC
FACS-Seq fitted mean (log10) (hypoxanthine [1]): 0.228 ± 0.058 | normalized RNA/DNA level with ligand (log10) (hypoxanthine [2]): 1.967 ± 0.0031 | normalized RNA/DNA level without ligand (log10) (hypoxanthine [3]): 1.775 ± 0.0099 | FACS-Seq fitted mean (log10) (hypoxanthine [4]): 0.495 ± 0.026

GCUGUCACCGGUGUAUUACCCUAGUGGUCGACCGGUCUGAUGAGUCUGAAAAUAGACGAAACAGC
FACS-Seq fitted mean (log10) (hypoxanthine [1]): 0.558 ± 0.04 | normalized RNA/DNA level with ligand (log10) (hypoxanthine [2]): 1.92 ± 0.034 | normalized RNA/DNA level without ligand (log10) (hypoxanthine [3]): 1.8 ± 0.02 | FACS-Seq fitted mean (log10) (hypoxanthine [4]): 0.532 ± 0.074

GCUGUCACCGGUGUAUUACCCUAGUGGUCGACCGGUCUGAUGAGUCUCCAUGGAGACGAAACAGC
FACS-Seq fitted mean (log10) (hypoxanthine [1]): 0.39 ± 0.0048 | normalized RNA/DNA level with ligand (log10) (hypoxanthine [2]): 1.85 ± 0.07 | normalized RNA/DNA level without ligand (log10) (hypoxanthine [3]): 1.47 ± 0.018 | FACS-Seq fitted mean (log10) (hypoxanthine [4]): 0.611 ± 0.053

GCUGUCACCGGUGUAUUACCCUAGUGGUCGACCGGUCUGAUGAGUCUUUGAAAAGACGAAACAGC
FACS-Seq fitted mean (log10) (hypoxanthine [1]): 0.426 ± 0.1 | normalized RNA/DNA level with ligand (log10) (hypoxanthine [2]): 1.953 ± 0.0063 | normalized RNA/DNA level without ligand (log10) (hypoxanthine [3]): 1.77 ± 0.044 | FACS-Seq fitted mean (log10) (hypoxanthine [4]): 0.614 ± 0.07

GCUGUCACCGGUGUAUUACCCUAGUGGUCGACCGGUCUGAUGAGUCUUCAGGAAGACGAAACAGC
FACS-Seq fitted mean (log10) (hypoxanthine [1]): 0.301 ± 0.039 | normalized RNA/DNA level with ligand (log10) (hypoxanthine [2]): 1.89 ± 0.02 | normalized RNA/DNA level without ligand (log10) (hypoxanthine [3]): 1.44 ± 0.047 | FACS-Seq fitted mean (log10) (hypoxanthine [4]): 0.6634 ± 0.0026

GCUGUCACCGGUGUAUUACCCUAGUGGUCGACCGGUCUGAUGAGUCUAGGAGCAGACGAAACAGC
FACS-Seq fitted mean (log10) (hypoxanthine [1]): 0.421 ± 0.0061 | normalized RNA/DNA level with ligand (log10) (hypoxanthine [2]): 1.883 ± 0.003 | normalized RNA/DNA level without ligand (log10) (hypoxanthine [3]): 1.485 ± 0.0035 | FACS-Seq fitted mean (log10) (hypoxanthine [4]): 0.5478 ± 0.0022

GCUGUCACCGGUGUAUUACCCUAGUGGUCGACCGGUCUGAUGAGUCUUGAGUGAGACGAAACAGC
FACS-Seq fitted mean (log10) (hypoxanthine [1]): 0.274 ± 0.026 | normalized RNA/DNA level with ligand (log10) (hypoxanthine [2]): 1.9 ± 0.0079 | normalized RNA/DNA level without ligand (log10) (hypoxanthine [3]): 1.64 ± 0.047 | FACS-Seq fitted mean (log10) (hypoxanthine [4]): 0.263 ± 0.019

GCUGUCACCGGUGUAUUACCCUAGUGGUCGACCGGUCUGAUGAGUCUGUCUCUAGACGAAACAGC
FACS-Seq fitted mean (log10) (hypoxanthine [1]): 0.359 ± 0.039 | normalized RNA/DNA level with ligand (log10) (hypoxanthine [2]): 1.97 ± 0.039 | normalized RNA/DNA level without ligand (log10) (hypoxanthine [3]): 1.98 ± 0.092 | FACS-Seq fitted mean (log10) (hypoxanthine [4]): 0.302 ± 0.052

GCUGUCACCGGUGUAUUACCCUAGUGGUCGACCGGUCUGAUGAGUCUACCGUAAGACGAAACAGC
FACS-Seq fitted mean (log10) (hypoxanthine [1]): 0.247 ± 0.0083 | normalized RNA/DNA level with ligand (log10) (hypoxanthine [2]): 1.93 ± 0.065 | normalized RNA/DNA level without ligand (log10) (hypoxanthine [3]): 1.822 ± 0.014 | FACS-Seq fitted mean (log10) (hypoxanthine [4]): 0.474 ± 0.038

GCUGUCACCGGUGUAUUACCCUAGUGGUCGACCGGUCUGAUGAGUCUGUCAUGAGACGAAACAGC
FACS-Seq fitted mean (log10) (hypoxanthine [1]): 0.242 ± 0.025 | normalized RNA/DNA level with ligand (log10) (hypoxanthine [2]): 1.9 ± 0.027 | normalized RNA/DNA level without ligand (log10) (hypoxanthine [3]): 1.53 ± 0.025 | FACS-Seq fitted mean (log10) (hypoxanthine [4]): 0.491 ± 0.014

GCUGUCACCGGUGUAUUACCCUAGUGGUCGACCGGUCUGAUGAGUCUGUAAUGAGACGAAACAGC
FACS-Seq fitted mean (log10) (hypoxanthine [1]): 0.27 ± 0.022 | normalized RNA/DNA level with ligand (log10) (hypoxanthine [2]): 1.853 ± 0.0059 | normalized RNA/DNA level without ligand (log10) (hypoxanthine [3]): 1.52 ± 0.028 | FACS-Seq fitted mean (log10) (hypoxanthine [4]): 0.529 ± 0.0072

From the supplement of paper PMC6757056
